According to paper PMC2557009, “YB-1 promotes microtubule assembly in vitro through interaction with tubulin and microtubules” (BMC Biochemistry, 2008):

Target: the molecule itself
Assay: cross-linking; zero length cross-linker EDC (5 mM) / sulfo-NHS (12 mM); 1 μM tubulin and 0.3, 0.5, 0.8 or 1.2 μM YB-1, or each alone; 50 mM MES-KOH pH 6.8, 1 mM MgCl2, 1 mM EGTA, 0.5 mM GTP, 1 h at 30°C; SDS-PAGE, Coomassie and Western blot

B1: YB-1 (natural protein)
chain: not shown
notes: source: E. coli BL21(DE3), pET 3-1-YB-1 construct, purified (heparin-Sepharose, Sephacryl S-200)
stoichiometry N: 2
